The results in this text go back to patent US20130288266A1 (ROCHE DIAGNOSTICS OPERATIONS, published 2013).

Assay [1] addresses T1, IGF-1R(1340-1366)[1346-pTyr]amid, phosphorylated IGF-1R peptide (phosphotyrosine at 1346 (IGF-1R numbering); C-terminal amide; in Examples 2.6 and 2.7 a biotinylated PEG-linker bound via glutamic acid at position 1340).
T1 construct: also called pIGF-1R peptide; pIGF-1R
T1 peptide: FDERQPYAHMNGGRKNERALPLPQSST
The experiment in a line: SPR (Biacore 3000, 25 C), dual binder on biotinylated linker on SA chip, peptide injected; T40 linker (linker 10, spacer T20-Biotin-dT-T20).

In assay [2] the target is T2, IGF-1R(1340-1366)amid, non-phosphorylated IGF-1R peptide (C-terminal amide; in Example 2.6 a biotinylated PEG-linker bound via glutamic acid at position 1340).
T2 construct: also called Glu(Bi-PEG-1340]amid
T2 peptide: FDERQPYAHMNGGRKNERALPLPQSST
Nature of the assay: SPR (Biacore 3000, SA sensor, 25 C): both ssFab' hybridized on the immobilized biotinylated T40-Bi linker, peptide injected as analyte.
Description: (§1) As a control, buffer was injected instead of the ssFabs.
(§2) The system was regenerated after each concentration step with a 12 sec pulse of 250 mM NaOH and was reloaded with ssFab′ ligand.

Assay [3] deals with T1, IGF-1R(1340-1366)[1346-pTyr]amid, …. Described as above.
Description: as §1, §2
Assay [4] shares this target. Nature of the assay: SPR (Biacore 3000, SA sensor, 25 C): only ssFab' 1.4.168 hybridized on the immobilized biotinylated 8xC18 linker, pIGF-1R peptide injected as analyte.
Description: 89 RU amino-PEO-biotin were captured on the reference flow cell 1.
The system was regenerated after each concentration step with a 12 sec pulse of 250 mM NaOH and was reloaded with ssFab ligand.
Assay [5] has as its target T3, IR (insulin receptor) in untreated IR overexpressing 3T3 cells (UniProt P06213 28-1382, limits assumed).
T3 construct: whole, on cells; also called IR (unstimulated)
The experiment in a line: IHC (Ventana BenchMark XT), ssFab' on 8xC18 linker, FFPE 3T3 cells.
Description: (§3) In order to test the specificity of the anti-pIGF-1R dual binder molecule an elaborate test system based on formalin-fixed paraffin-embedded (FFPE) 3T3 cells was used. 3T3 cells had been stably transfected with either IGF-1R or IR expression vectors. Cells were fixed with formalin and embedded in paraffin according to standard protocols. Prior to fixation cells were stimulated with 100 ng/ml of either IGF-1 or Insulin to induce IGF1-R or IR phosphorylation or were left untreated.
(§4) A biotin label within the linker molecule served as a detection tag for the streptavidin-based Ventana iVIEW DAB detection kit.

The target of assay [6] is T4, phosphorylated IR in IR overexpressing 3T3 cells stimulated with Insulin (UniProt P06213 28-1382, limits assumed, phosphorylated after stimulation with 100 ng/ml Insulin).
T4 construct: whole, on cells; also called pIR (cells)
The assay is described as above.
Description: as §3, §4

Assay [7] has as its target T2, IGF-1R(1340-1366)amid, …. Nature of the assay: SPR (Biacore 3000, SA sensor, 25 C): only ssFab' 1.4.168 hybridized on the immobilized biotinylated T0-Bi linker, peptide injected as analyte.
Description: as §1, §2
The target in assay [8] is T1, IGF-1R(1340-1366)[1346-pTyr]amid, …. The description is as above.
Description: as §1, §2
In assay [9] the target is T2, IGF-1R(1340-1366)amid, …. Nature of the assay: SPR (Biacore 2000, 25 C), biotinylated peptide on SA chip, 100 nM ssFab' injected.
Description: (§5) 100 nM of analyte (i.e. in these experiments a bi-valent dual binding agent) in solution was injected at 50 μl/min for 240 sec association time and dissociation was monitored for 500 sec. Efficient regeneration was achieved by using a 1 min injection step at 50 μl/min with 80 mM NaOH. Flow cell 1 served as a reference. A blank buffer injection was used instead of an antigen injection to double reference the data by buffer signal subtraction.
(§6) (The digoxigenylation of the middle thymidine (T(-Dig)) in the above linkers is without relevance to these experiments.)
(§7) Report points were set at the end of the analyte association phase (Binding Late, BL) and at the end of the analyte dissociation phase (Stability Late, SL) to monitor the response unit signal heights of each interaction. The dissociation rates kd (1/s) were calculated according to a linear 1:1 Langmuir fit using the Biacore™ evaluation software 4.1. The complex halftimes in minutes were calculated upon the formula In(2)/(60*kd).
For assay [10], the target named is T1, IGF-1R(1340-1366)[1346-pTyr]amid, …. The assay is described as above.
Description: as §5, §6, §7
The target of assay [11] is T2, IGF-1R(1340-1366)amid, …. Nature of the assay: SPR (Biacore 3000, SA sensor, 25 C): only ssFab' 1.4.168 hybridized on the immobilized biotinylated T40-Bi linker, peptide injected as analyte.
Description: as §1, §2
For assay [12], the target named is T1, IGF-1R(1340-1366)[1346-pTyr]amid, …. Described as above.
Description: as §1, §2
Assay [13] shares this target. Nature of the assay: SPR sandwich assay (Biacore T100, 13 C), FIG. 7.
Description: A Biacore™ T100 instrument (GE Healthcare) was used with a Biacore™ CM5 sensor mounted into the system. The sensor was preconditioned by a 1 min injection at 100 μl/min of 0.1% SDS, 50 mM NaOH, 10 mM HCl and 100 mM H3PO4.
The Biacore™ T100 System was driven under the control software V1.1.1. Polyclonal rabbit IgG antibody <IgGFCγM>R (Jackson ImmunoResearch Laboratories Inc.) at 30 μg/ml in 10 mM Na-Acetate pH 4.5 was immobilized at 10 000 RU on the flow cells 1, 2, 3, and 4, respectively, via EDC/NHS chemistry according to the manufacturer's instructions. Finally, the sensor surface was blocked with 1M ethanolamine. The complete experiment was driven at 13° C.
3 μM of an IgG fragment mixture (of IgG classes IgG1, IgG2a, IgG2b, IgG3) containing blocking solution was injected at 30 μl/min for 5 min.

“And” between values parts separate entries of the source, which are not always exact repeats. Equal entries are not always repeated.

T4 sequence (P06213 28-1382 limits assumed): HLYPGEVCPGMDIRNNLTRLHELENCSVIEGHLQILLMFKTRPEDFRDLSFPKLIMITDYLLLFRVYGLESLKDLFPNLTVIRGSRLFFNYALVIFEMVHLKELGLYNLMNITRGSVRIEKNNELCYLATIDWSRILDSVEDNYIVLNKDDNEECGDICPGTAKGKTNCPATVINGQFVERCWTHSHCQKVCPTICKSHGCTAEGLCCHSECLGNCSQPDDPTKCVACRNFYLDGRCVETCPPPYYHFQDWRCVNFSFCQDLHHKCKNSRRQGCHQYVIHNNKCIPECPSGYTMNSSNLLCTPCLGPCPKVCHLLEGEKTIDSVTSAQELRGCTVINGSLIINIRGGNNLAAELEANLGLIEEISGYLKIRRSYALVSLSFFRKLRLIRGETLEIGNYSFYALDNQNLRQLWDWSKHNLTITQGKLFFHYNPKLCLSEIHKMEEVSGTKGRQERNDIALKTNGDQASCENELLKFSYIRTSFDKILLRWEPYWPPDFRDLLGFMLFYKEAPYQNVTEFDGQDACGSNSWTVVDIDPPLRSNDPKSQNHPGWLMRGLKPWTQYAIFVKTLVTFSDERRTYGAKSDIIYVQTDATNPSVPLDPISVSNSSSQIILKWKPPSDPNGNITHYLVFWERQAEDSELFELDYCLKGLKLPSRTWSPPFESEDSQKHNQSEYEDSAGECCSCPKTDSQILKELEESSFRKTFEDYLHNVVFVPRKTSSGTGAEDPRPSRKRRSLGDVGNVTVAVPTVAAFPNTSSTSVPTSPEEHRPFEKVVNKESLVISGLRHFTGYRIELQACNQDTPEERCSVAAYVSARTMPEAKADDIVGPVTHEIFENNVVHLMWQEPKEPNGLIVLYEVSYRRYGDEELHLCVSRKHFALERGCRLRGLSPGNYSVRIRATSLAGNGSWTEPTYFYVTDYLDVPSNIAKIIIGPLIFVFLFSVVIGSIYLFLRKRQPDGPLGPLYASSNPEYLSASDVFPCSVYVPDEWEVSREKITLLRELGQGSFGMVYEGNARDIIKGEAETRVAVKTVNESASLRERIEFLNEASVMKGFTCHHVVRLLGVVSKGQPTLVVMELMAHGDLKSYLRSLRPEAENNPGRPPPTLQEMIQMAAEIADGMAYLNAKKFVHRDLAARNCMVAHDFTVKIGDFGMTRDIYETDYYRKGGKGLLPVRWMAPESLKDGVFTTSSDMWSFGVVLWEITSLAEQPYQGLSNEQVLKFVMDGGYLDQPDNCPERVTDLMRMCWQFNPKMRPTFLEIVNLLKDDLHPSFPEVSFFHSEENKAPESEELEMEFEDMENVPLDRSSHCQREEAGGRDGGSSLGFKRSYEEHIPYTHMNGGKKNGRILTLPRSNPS
T3 sequence (P06213 28-1382 limits assumed): as above

B1: T40-T-Bi linker dual binder with ssFab' 8.1.2 and ssFab' 1.4.168 (linker 10 of example 2.4) (bispecific antibody, V domains shown)
VH 1: EVQLQQSGPALVKPGASVKMSCKASGFTFTSYVIHWVKQKPGQGLEWIGYLNPYNDNTKYNEKFKGKATLTSDRSSSTVYMEFSSLTSEDSAVYFCARRGIYAYDHYFDYWGQGTSLTVSS
VL 1: QIVLTQSPAIMSASPGEKVTLTCSASSSVNYMYWYQQKPGSSPRLLIYDTSNLASGVPVRFSGSGSVTSYSLTISRMEAEDAATYYCQQWSTYPLTFGAGTKLELK
VH 2: QCDVKLVESGGGLVKPGGSLKLSCAASGFTFSDYPMSWVRQTPEKRLEWVATITTGGTYTYYPDSIKGRFTISRDNAKNTLYLQMGSLQSEDAAMYYCTRVKTDLWWGLAYWGQGTLVTVSA
VL 2: QLVLTQSSSASFSLGASAKLTCTLSSQHSTYTIEWYQQQPLKPPKYVMELKKDGSHTTGDGIPDRFSGSSSGADRYLSISNIQPEDESIYICGVGDTIKEQFVYVFGGGTKVTVLG
modifications: 17 mer ssDNA (SEQ ID NO:6, fluorescein) on hinge cysteine; 19 mer ssDNA (SEQ ID NO:5, Cy5) on hinge cysteine
notes: Two Fab'-ssDNA conjugates hybridised on biotinylated 77-mer DNA linker 10 (T20-Biotin-dT-T20) captured on a streptavidin chip; also called T40-Bi
Regarding B1, the Kd is 0.01 nM in assay [1]; 0.973 nM and 1 nM in assay [2]; 0.0125 nM in assay [3]. In assay [2], this molecule showed a t1/2 diss of 4.3 min.

B2: ssFab' 1.4.168 (Fab' of mAb 1.4.168 covalently linked to 17 mer ssDNA) (Fab, V domains shown)
VH: DVKLVESGGGLVKPGGSLKLSCAASGFTFSDYPMSWVRQTPEKRLEWVATITTGGTYTYYPDSIKGRFTISRDNAKNTLYLQMGSLQSEDAAMYYCTRVKTDLWWGLAYWGQGTLVTVSA
VL: QLVLTQSSSASFSLGASAKLTCTLSSQHSTYTIEWYQQQPLKPPKYVMELKKDGSHTTGDGIPDRFSGSSSGADRYLSISNIQPEDESIYICGVGDTIKEQFVYVFGGGTKVTVLG
modifications: 17 mer ssDNA comprising SEQ ID NO:6 with fluorescein, coupled through maleimide to a cysteine of the Fab' hinge region
notes: Fab' from pepsin cleavage and cysteamine reduction of a murine monoclonal IgG; also called ssFab' 1.004.168; fluorescein-ssFab' 1.4.168
For the molecule B2, the dissociation constant Kd in assay [4] is 2.96 nM and 3 nM; in assay [7], 1.35 nM and 1 nM; in assay [8], 2.59 nM and 3 nM; in assay [11], 1.1 nM and 1 nM; in [12] it was 2.14 nM and 2 nM. In addition, the binding result in assay [5] and in assay [6] was “no binding (tested: 0.5 µg/ml)” each time. Besides, the t1/2 diss turned out to be 4 min in assay [7], 4 min in assay [8] and 3 min in assay [11]. For the same molecule, the T1/2 dis in assay [9] and in assay [10] was 3 min throughout.

B3: murine monoclonal antibody M-1.4.168-IgG (antibody, V domains shown)
VH: DVKLVESGGGLVKPGGSLKLSCAASGFTFSDYPMSWVRQTPEKRLEWVATITTGGTYTYYPDSIKGRFTISRDNAKNTLYLQMGSLQSEDAAMYYCTRVKTDLWWGLAYWGQGTLVTVSA
VL: QLVLTQSSSASFSLGASAKLTCTLSSQHSTYTIEWYQQQPLKPPKYVMELKKDGSHTTGDGIPDRFSGSSSGADRYLSISNIQPEDESIYICGVGDTIKEQFVYVFGGGTKVTVLG
notes: Whole murine IgG from hybridoma; also called mAb 1.4.168; M-1.004.168-IgG
As for B3, the binding result in assay [13] was “binds”.
